# In patent publication US20180244762A1 (KODIAK SCIENCES, published 2018):
# B1: TAF443-3A250K (other)
# heavy: LVVTPPGPELVLNVSSTFVLTCSGSAPVVWERMSQEPPQEMAKAQDGTFSSVLTLTNLTGLDTGEYFCTHNDSRGLETDERKRLYIFVPDPTVGFLPNDAEELFIFLTEITEITIPCRVTDPQLVVTLHEKKGDVALPVPYDHQRGFSGIFEDRSYICKTTIGDREVDSDAYYVYRLQVSSINVSVNAVQTVVRQGENITLMCIVIGNEVVNFEWTYPRKESGRLVEPVTDFLLDMPYHIRSILHIPSAELEDSGTYTCNVTESVNDHQDEKAINITVVESGGGGGSGGGGSEVQLVESGGGLVQPGGSLRLSCAASGYDFTHYGMNWVRQAPGKGLEWVGWINTYTGEPTYAADFKRRFTFSLDTSKSTAYLQMNSLRAEDTAVYYCAKYPYYYGTSHWYFDVWGQGTLVTVSSASTKGPSVFPLAPSSKSTSGGTAALGCLVKDYFPEPVTVSWNSGALTSGVHTFPAVLQSSGLYSLSSVVTVPSSSLGTQTYICNVNHKPSNTKVDKKVEPKSCDKTHTCPPCPAPEAAGAPSVFLFPPKPKDTLMISRTPEVTCVVVDVSHEDPEVKFNWYVDGVEVHNAKTKPREEQYNSTYRVVSVLTVLHQDWLNGKEYKCKVSNKALPAPIEKTISKAKGQPREPQVYTLPPSREEMTKNQVSLTCLVKGFYPSDIAVEWESNGQPENNYKTTPPVLDSDGSFFLYSKLTVDKSRWQQGNVFSCSVMHEALHNHYTQKSLSCSPGK
# light: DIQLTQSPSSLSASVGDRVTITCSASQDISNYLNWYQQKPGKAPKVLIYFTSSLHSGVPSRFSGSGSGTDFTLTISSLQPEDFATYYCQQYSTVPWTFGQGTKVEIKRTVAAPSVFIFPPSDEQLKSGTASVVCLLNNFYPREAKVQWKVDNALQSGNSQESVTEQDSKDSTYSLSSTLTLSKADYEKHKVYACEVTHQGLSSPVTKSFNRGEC
# modifications: polymer conjugate, label 3A250K; polymer and attachment site not described for this conjugate
# notes: also called R3644-3A
# Experiments:
# [1] = biological target: T1, recombinant human PDGF-BB (human, UniProt P01127 82-190); assay: SPR (Biacore T200, 25 C), binder captured by anti-human IgG, PDGF-BB as analyte, average of the runs
# T1 construct: also called rhPDGF-BB; rhPDGFBB
# Description: (§1) Each PDGF/VEGF variant was captured to a level of approximately 150 RUs. The running and sample buffer for the PDGF analysis was HBS-EP+300mM NaCl (10 mM 4-(2-hydroxyethyl)-1-piperazineethanesulfonic acid (HEPES) pH 7.4, 300 mM NaCl, 3mM ethylenediaminetetraacetic acid (EDTA), 0.05% (v/v) Tween-20). […] The surface was then regenerated with a 30 second pulse of 3M MgCl₂, a 30 second pulse of an ionic regeneration buffer (0.46M KSCN, 1.83 M MgCl2, 0.92 M urea, and 1.83 M guanidine-HCI pH7.4, Andersson et al., Analytical Chemistry, 1999) and then equilibrated with a 30 second pulse of HBS-EP+ 300 mM NaCl running buffer.
# (§2) All SPR assays were performed at 25° C. with a data collection rate of1Hz using a Biacore T200 instrument (GE Healthcare). The resulting PDGP and VEGP sensorgrams were double referenced using both a control surface and buffer injections. The rate constants were determined by fitting the data to a 1:1 Langmuir model with Biacore T200 evaluation software v2.0 and the equation […].
# [2] = biological target: T1, recombinant human PDGF-BB; assay: SPR (Biacore T200, 25 C), binder captured by anti-human IgG, PDGF-BB as analyte, run B
# Description: as §1, §2
# [3] = biological target: T1, recombinant human PDGF-BB; assay: SPR (Biacore T200, 25 C), binder captured by anti-human IgG, PDGF-BB as analyte, run C
# Description: as §1, §2
# [4] = biological target: T1, recombinant human PDGF-BB; assay: SPR (Biacore T200, 25 C), binder captured by anti-human IgG, PDGF-BB as analyte, run A
# Description: as §1, §2
# T1 sequence (P01127 82-190): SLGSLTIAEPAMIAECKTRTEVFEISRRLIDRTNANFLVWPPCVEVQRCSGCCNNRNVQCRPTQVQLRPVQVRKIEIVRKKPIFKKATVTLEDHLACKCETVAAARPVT
binder,measurement,setting,value
B1,Kd,[1],1.5 pM
same,Kd,[2],1.73 pM
same,koff,[2],4.96e-05 s⁻¹
same,kon,[2],2.86e+07 M⁻¹ s⁻¹
same,t½,[2],3.88 h
same,Kd,[3],1.6 pM
same,koff,[3],7.52e-05 s⁻¹
same,kon,[3],4.71e+07 M⁻¹ s⁻¹
same,t½,[3],2.56 h
same,Kd,[4],1.03 pM
same,koff,[4],5.92e-05 s⁻¹
same,kon,[4],5.76e+07 M⁻¹ s⁻¹
same,t½,[4],3.25 h
